Reference: patent US20090130093A1 (AstraZeneca / MedImmune, published 2009)
Substitutions are numbered along the chain they refer to.

T1: human GM-CSFRα (mature receptor alpha chain, as on human cells) (human, UniProt P15509 23-400)
T1 sequence: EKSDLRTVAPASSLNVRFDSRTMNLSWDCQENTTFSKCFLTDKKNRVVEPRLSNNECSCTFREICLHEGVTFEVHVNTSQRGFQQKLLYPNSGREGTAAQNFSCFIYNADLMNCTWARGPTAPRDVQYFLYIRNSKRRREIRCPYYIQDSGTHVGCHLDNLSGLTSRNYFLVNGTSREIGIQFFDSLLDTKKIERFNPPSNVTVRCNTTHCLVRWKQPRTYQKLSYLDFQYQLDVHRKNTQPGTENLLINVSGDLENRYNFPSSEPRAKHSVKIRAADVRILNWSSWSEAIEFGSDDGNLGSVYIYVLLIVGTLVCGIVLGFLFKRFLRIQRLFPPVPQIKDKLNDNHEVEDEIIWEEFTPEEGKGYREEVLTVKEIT

T2: cynomolgus GM-CSFRα on cynomolgus granulocytes (cynomolgus, UniProt A0A2K5UC70 23-393)
T2 sequence: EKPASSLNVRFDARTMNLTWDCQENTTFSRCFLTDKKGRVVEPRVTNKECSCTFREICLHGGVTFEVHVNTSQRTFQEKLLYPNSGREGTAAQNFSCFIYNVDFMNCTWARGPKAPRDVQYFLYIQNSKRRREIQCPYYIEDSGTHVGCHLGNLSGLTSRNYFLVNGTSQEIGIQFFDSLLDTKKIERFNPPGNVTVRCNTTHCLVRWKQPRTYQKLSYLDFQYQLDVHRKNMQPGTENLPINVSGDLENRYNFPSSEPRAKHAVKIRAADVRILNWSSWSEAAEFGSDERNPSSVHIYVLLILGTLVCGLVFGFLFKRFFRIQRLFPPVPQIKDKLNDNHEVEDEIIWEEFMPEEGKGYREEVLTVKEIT

B1: Antibody 13 IgG4 (antibody, V domains shown)
VH: QVQLVQSGAEVKKPGASVKVSCKISGHSLSELSIHWVRQTPTKGFEWMGGFDPEENEIVYAQRFQGRVTMTEDTSIDTAYLTLSSLRSDDTAVYYCSIVGSFSGWAFDYWGKGTMVTVSS
VL: QAVLTQPSSVSGAPGQRVTISCTGSGSNIGAPYDVSWYQQLPGTAPKLLIYHNNKRPSGVPDRFSASKSGTSASLAITGLQADDEADYYCQSYDSRTGIIVFGGGTKVTVL
B2: Antibody 18 IgG4 (antibody, V domains shown)
VH: B1 VH with S33F, I98T, W105P, F107L, D108H, Y109L
VL: B1 VL with R96Q, T97W, G98N, I99Q, I100P, V101L
B3: 28G5 (Antibody 3) IgG4, parent antibody (antibody, V domains shown)
VH: B1 VH
VL: B1 VL with R96S, T97L, G98S, I99G, I100S
B4: Antibody 2 IgG4 (antibody, V domains shown)
VH: B1 VH with W105P, F107L, D108R, Y109P
VL: B1 VL with R96S, T97L, G98S, I99G, I100S
B5: Antibody 6 IgG4, non-germlined (antibody, V domains shown)
VH: B1 VH with G104P, W105L, A106T, F107L, D108G, Y109L
VL: QAVLTQPSSVSGAPGQRVTISCTGSGSNIGAPYDVSWYQQLPGTAPKLLIYHNNKRPSGVPDRFSASKSGTSASLAITGLQADDEADYYCATVEAGLSGSVFGGGTKLTVL
B6: Antibody 6 (germlined or non-germlined not stated at these places) (antibody, V domains shown)
VH: QVQLVQSGAEVKKPGASVKVSCKVSGYTLTELSIHWVRQAPGKGLEWMGGFDPEENEIVYAQRFQGRVTMTEDTSTDTAYMELSSLRSEDTAVYYCAIVGSFSPLTLGLWGQGTMVTVSS
VL: B5 VL with A2S, S8P, A66G, D83E

Columns and labels:
Experiment in all cases: cell-based or functional assay
[1] = molecular target: T1, human GM-CSFRα (mature receptor alpha …)
[2] = molecular target: T2, cynomolgus GM-CSFRα on cynomolgus …
[3] = molecular target: T1, human GM-CSFRα (mature receptor alpha …); remark: listed apart in the source

Row | Binder | IC50, GM-CSF induced proliferation of TF-1 cells [1] | IC50, cynomolgus granulocyte shape change assay [2] | further results
1 | B1 | 1.11 nM | – | –
2 | B2 | 0.0133 nM | – | –
3 | B3 | – | ~5 nM | –
4 | B4 | – | 0.0032 nM | –
5 | B5 | – | 0.00173 nM | –
6 | B6 | – | – | IC50, colony formation assay with 10 ng/ml human GM-CSF [3]: ~0.08 µg/mL
